The values that follow come from article PMC8439434.

The target in experiment [1] is HLA-C*07:01 purified from the Steinlin EBV transformed homozygous cell line (human (endogenous in the Steinlin EBV transformed cell line)). Kind of experiment: radioligand binding; classical MHC-peptide inhibition of binding assay specific for HLA-C*07:01: purified MHC from the Steinlin line, radiolabeled 3424.0028 as probe, test peptides as inhibitors, anti-HLA Class I B123.2 mAb.

Experiment [2] addresses HLA-B*08:01 (human (endogenous in the Steinlin EBV transformed cell line)). Kind of experiment: radioligand binding; previously validated B*08:01 inhibition of binding assay (ref. 10); radiolabeled probe not named.

As for “peptide 3424.0028 (…, DNA replication licensing factor MCM5 289-297)”, in experiment [1], the affinity (from inhibition of binding) came to 0.21 nM. In experiment [2], this substance gave a fold lower affinity than in the C*07:01 assay of 1500 fold.
